According to patent US12679878B2, “CRF2 receptor agonists and their use in therapy” (SANOFI, priority 2020, dated 2026):
Starred links: 1 amine or outer side, 2 acyl side, 3 side chain; linkers in the order of their positions; H or OH if unused. Non-standard residues stand in square brackets, D forms with d. Groups on a side chain read outwards from the residue. No end group written: not given here. *: point of attachment. C18 diacid = O=C(O)CCCCCCCCCCCCCCCCC(=O)*; γGlu = O=C(O)[C@H](CCC(=O)[*:2])N[*:1]; AEEA = NCCOCCOCC(=O)O; Aib = CC(C)(N)C(=O)O

T1: CRF1R receptor (anti-target) (UniProt P34998 24-415, limits assumed)
T1 sequence (looked up): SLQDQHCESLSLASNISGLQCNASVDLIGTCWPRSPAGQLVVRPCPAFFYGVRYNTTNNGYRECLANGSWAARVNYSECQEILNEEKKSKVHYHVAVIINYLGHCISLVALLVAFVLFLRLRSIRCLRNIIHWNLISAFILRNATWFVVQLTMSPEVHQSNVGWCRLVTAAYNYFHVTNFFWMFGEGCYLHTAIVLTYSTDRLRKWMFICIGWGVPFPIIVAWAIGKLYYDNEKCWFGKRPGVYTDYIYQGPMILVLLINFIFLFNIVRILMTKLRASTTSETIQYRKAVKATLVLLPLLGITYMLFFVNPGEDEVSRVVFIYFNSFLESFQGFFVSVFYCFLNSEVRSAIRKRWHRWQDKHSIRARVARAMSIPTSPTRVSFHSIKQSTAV

B1: peptide of SEQ ID NO: 102 (peptide)
peptide: IVLSLD[dV]PIKLK([AEEA-AEEA-γGlu-C18 diacid])QILLKQERQKKQREQAETNKQILAQV-NH2
modifications: N-terminus assumed
SMILES: CC[C@H](C)[C@H](N)C(=O)N[C@H](C(=O)N[C@@H](CC(C)C)C(=O)N[C@@H](CO)C(=O)N[C@@H](CC(C)C)C(=O)N[C@@H](CC(=O)O)C(=O)N[C@@H](C(=O)N1CCC[C@H]1C(=O)N[C@H](C(=O)N[C@@H](CCCCN)C(=O)N[C@@H](CC(C)C)C(=O)N[C@@H](CCCCNC(=O)COCCOCCNC(=O)COCCOCCNC(=O)CC[C@H](NC(=O)CCCCCCCCCCCCCCCCC(=O)O)C(=O)O)C(=O)N[C@@H](CCC(N)=O)C(=O)N[C@H](C(=O)N[C@@H](CC(C)C)C(=O)N[C@@H](CC(C)C)C(=O)N[C@@H](CCCCN)C(=O)N[C@@H](CCC(N)=O)C(=O)N[C@@H](CCC(=O)O)C(=O)N[C@@H](CCCNC(=N)N)C(=O)N[C@@H](CCC(N)=O)C(=O)N[C@@H](CCCCN)C(=O)N[C@@H](CCCCN)C(=O)N[C@@H](CCC(N)=O)C(=O)N[C@@H](CCCNC(=N)N)C(=O)N[C@@H](CCC(=O)O)C(=O)N[C@@H](CCC(N)=O)C(=O)N[C@@H](C)C(=O)N[C@@H](CCC(=O)O)C(=O)N[C@H](C(=O)N[C@@H](CC(N)=O)C(=O)N[C@@H](CCCCN)C(=O)N[C@@H](CCC(N)=O)C(=O)N[C@H](C(=O)N[C@@H](CC(C)C)C(=O)N[C@@H](C)C(=O)N[C@@H](CCC(N)=O)C(=O)N[C@H](C(N)=O)C(C)C)[C@@H](C)CC)[C@@H](C)O)[C@@H](C)CC)[C@@H](C)CC)C(C)C)C(C)C
B2: peptide of SEQ ID NO: 103 (peptide)
peptide: IVLSLDVPIKLK([AEEA-AEEA-γGlu-C18 diacid])QILLEQERQK[Aib]QREQAETNKQILAQV-NH2
modifications: N-terminus assumed
SMILES: CC[C@H](C)[C@H](N)C(=O)N[C@H](C(=O)N[C@@H](CC(C)C)C(=O)N[C@@H](CO)C(=O)N[C@@H](CC(C)C)C(=O)N[C@@H](CC(=O)O)C(=O)N[C@H](C(=O)N1CCC[C@H]1C(=O)N[C@H](C(=O)N[C@@H](CCCCN)C(=O)N[C@@H](CC(C)C)C(=O)N[C@@H](CCCCNC(=O)COCCOCCNC(=O)COCCOCCNC(=O)CC[C@H](NC(=O)CCCCCCCCCCCCCCCCC(=O)O)C(=O)O)C(=O)N[C@@H](CCC(N)=O)C(=O)N[C@H](C(=O)N[C@@H](CC(C)C)C(=O)N[C@@H](CC(C)C)C(=O)N[C@@H](CCC(=O)O)C(=O)N[C@@H](CCC(N)=O)C(=O)N[C@@H](CCC(=O)O)C(=O)N[C@@H](CCCNC(=N)N)C(=O)N[C@@H](CCC(N)=O)C(=O)N[C@@H](CCCCN)C(=O)NC(C)(C)C(=O)N[C@@H](CCC(N)=O)C(=O)N[C@@H](CCCNC(=N)N)C(=O)N[C@@H](CCC(=O)O)C(=O)N[C@@H](CCC(N)=O)C(=O)N[C@@H](C)C(=O)N[C@@H](CCC(=O)O)C(=O)N[C@H](C(=O)N[C@@H](CC(N)=O)C(=O)N[C@@H](CCCCN)C(=O)N[C@@H](CCC(N)=O)C(=O)N[C@H](C(=O)N[C@@H](CC(C)C)C(=O)N[C@@H](C)C(=O)N[C@@H](CCC(N)=O)C(=O)N[C@H](C(N)=O)C(C)C)[C@@H](C)CC)[C@@H](C)O)[C@@H](C)CC)[C@@H](C)CC)C(C)C)C(C)C
B3: peptide of SEQ ID NO: 89 (peptide)
peptide: IVLSLDVPIKLK([AEEA-AEEA-γGlu-C18 diacid])QILLKQERQKKQREQAKTN[Aib]QILAQV-NH2
modifications: N-terminus assumed
SMILES: CC[C@H](C)[C@H](N)C(=O)N[C@H](C(=O)N[C@@H](CC(C)C)C(=O)N[C@@H](CO)C(=O)N[C@@H](CC(C)C)C(=O)N[C@@H](CC(=O)O)C(=O)N[C@H](C(=O)N1CCC[C@H]1C(=O)N[C@H](C(=O)N[C@@H](CCCCN)C(=O)N[C@@H](CC(C)C)C(=O)N[C@@H](CCCCNC(=O)COCCOCCNC(=O)COCCOCCNC(=O)CC[C@H](NC(=O)CCCCCCCCCCCCCCCCC(=O)O)C(=O)O)C(=O)N[C@@H](CCC(N)=O)C(=O)N[C@H](C(=O)N[C@@H](CC(C)C)C(=O)N[C@@H](CC(C)C)C(=O)N[C@@H](CCCCN)C(=O)N[C@@H](CCC(N)=O)C(=O)N[C@@H](CCC(=O)O)C(=O)N[C@@H](CCCNC(=N)N)C(=O)N[C@@H](CCC(N)=O)C(=O)N[C@@H](CCCCN)C(=O)N[C@@H](CCCCN)C(=O)N[C@@H](CCC(N)=O)C(=O)N[C@@H](CCCNC(=N)N)C(=O)N[C@@H](CCC(=O)O)C(=O)N[C@@H](CCC(N)=O)C(=O)N[C@@H](C)C(=O)N[C@@H](CCCCN)C(=O)N[C@H](C(=O)N[C@@H](CC(N)=O)C(=O)NC(C)(C)C(=O)N[C@@H](CCC(N)=O)C(=O)N[C@H](C(=O)N[C@@H](CC(C)C)C(=O)N[C@@H](C)C(=O)N[C@@H](CCC(N)=O)C(=O)N[C@H](C(N)=O)C(C)C)[C@@H](C)CC)[C@@H](C)O)[C@@H](C)CC)[C@@H](C)CC)C(C)C)C(C)C
B4: peptide of SEQ ID NO: 96 (peptide)
peptide: IVLSLDVPIKLK([AEEA-AEEA-γGlu-C18 diacid])QILLKQERQKKEREQAETNKQILAQV-NH2
modifications: N-terminus assumed
SMILES: CC[C@H](C)[C@H](N)C(=O)N[C@H](C(=O)N[C@@H](CC(C)C)C(=O)N[C@@H](CO)C(=O)N[C@@H](CC(C)C)C(=O)N[C@@H](CC(=O)O)C(=O)N[C@H](C(=O)N1CCC[C@H]1C(=O)N[C@H](C(=O)N[C@@H](CCCCN)C(=O)N[C@@H](CC(C)C)C(=O)N[C@@H](CCCCNC(=O)COCCOCCNC(=O)COCCOCCNC(=O)CC[C@H](NC(=O)CCCCCCCCCCCCCCCCC(=O)O)C(=O)O)C(=O)N[C@@H](CCC(N)=O)C(=O)N[C@H](C(=O)N[C@@H](CC(C)C)C(=O)N[C@@H](CC(C)C)C(=O)N[C@@H](CCCCN)C(=O)N[C@@H](CCC(N)=O)C(=O)N[C@@H](CCC(=O)O)C(=O)N[C@@H](CCCNC(=N)N)C(=O)N[C@@H](CCC(N)=O)C(=O)N[C@@H](CCCCN)C(=O)N[C@@H](CCCCN)C(=O)N[C@@H](CCC(=O)O)C(=O)N[C@@H](CCCNC(=N)N)C(=O)N[C@@H](CCC(=O)O)C(=O)N[C@@H](CCC(N)=O)C(=O)N[C@@H](C)C(=O)N[C@@H](CCC(=O)O)C(=O)N[C@H](C(=O)N[C@@H](CC(N)=O)C(=O)N[C@@H](CCCCN)C(=O)N[C@@H](CCC(N)=O)C(=O)N[C@H](C(=O)N[C@@H](CC(C)C)C(=O)N[C@@H](C)C(=O)N[C@@H](CCC(N)=O)C(=O)N[C@H](C(N)=O)C(C)C)[C@@H](C)CC)[C@@H](C)O)[C@@H](C)CC)[C@@H](C)CC)C(C)C)C(C)C
B5: peptide of SEQ ID NO: 105 (peptide)
peptide: IVLSLDVPIKLK([AEEA-AEEA-γGlu-C18 diacid])QILLEQERQK[Aib]QRQQAETNKQILAQV-NH2
modifications: N-terminus assumed
SMILES: CC[C@H](C)[C@H](N)C(=O)N[C@H](C(=O)N[C@@H](CC(C)C)C(=O)N[C@@H](CO)C(=O)N[C@@H](CC(C)C)C(=O)N[C@@H](CC(=O)O)C(=O)N[C@H](C(=O)N1CCC[C@H]1C(=O)N[C@H](C(=O)N[C@@H](CCCCN)C(=O)N[C@@H](CC(C)C)C(=O)N[C@@H](CCCCNC(=O)COCCOCCNC(=O)COCCOCCNC(=O)CC[C@H](NC(=O)CCCCCCCCCCCCCCCCC(=O)O)C(=O)O)C(=O)N[C@@H](CCC(N)=O)C(=O)N[C@H](C(=O)N[C@@H](CC(C)C)C(=O)N[C@@H](CC(C)C)C(=O)N[C@@H](CCC(=O)O)C(=O)N[C@@H](CCC(N)=O)C(=O)N[C@@H](CCC(=O)O)C(=O)N[C@@H](CCCNC(=N)N)C(=O)N[C@@H](CCC(N)=O)C(=O)N[C@@H](CCCCN)C(=O)NC(C)(C)C(=O)N[C@@H](CCC(N)=O)C(=O)N[C@@H](CCCNC(=N)N)C(=O)N[C@@H](CCC(N)=O)C(=O)N[C@@H](CCC(N)=O)C(=O)N[C@@H](C)C(=O)N[C@@H](CCC(=O)O)C(=O)N[C@H](C(=O)N[C@@H](CC(N)=O)C(=O)N[C@@H](CCCCN)C(=O)N[C@@H](CCC(N)=O)C(=O)N[C@H](C(=O)N[C@@H](CC(C)C)C(=O)N[C@@H](C)C(=O)N[C@@H](CCC(N)=O)C(=O)N[C@H](C(N)=O)C(C)C)[C@@H](C)CC)[C@@H](C)O)[C@@H](C)CC)[C@@H](C)CC)C(C)C)C(C)C
B6: peptide of SEQ ID NO: 104 (peptide)
peptide: IVLSLDVPIKLK([AEEA-AEEA-γGlu-C18 diacid])QILLKQERQK[Aib]QREQAETNKQILAQV-NH2
modifications: N-terminus assumed
SMILES: CC[C@H](C)[C@H](N)C(=O)N[C@H](C(=O)N[C@@H](CC(C)C)C(=O)N[C@@H](CO)C(=O)N[C@@H](CC(C)C)C(=O)N[C@@H](CC(=O)O)C(=O)N[C@H](C(=O)N1CCC[C@H]1C(=O)N[C@H](C(=O)N[C@@H](CCCCN)C(=O)N[C@@H](CC(C)C)C(=O)N[C@@H](CCCCNC(=O)COCCOCCNC(=O)COCCOCCNC(=O)CC[C@H](NC(=O)CCCCCCCCCCCCCCCCC(=O)O)C(=O)O)C(=O)N[C@@H](CCC(N)=O)C(=O)N[C@H](C(=O)N[C@@H](CC(C)C)C(=O)N[C@@H](CC(C)C)C(=O)N[C@@H](CCCCN)C(=O)N[C@@H](CCC(N)=O)C(=O)N[C@@H](CCC(=O)O)C(=O)N[C@@H](CCCNC(=N)N)C(=O)N[C@@H](CCC(N)=O)C(=O)N[C@@H](CCCCN)C(=O)NC(C)(C)C(=O)N[C@@H](CCC(N)=O)C(=O)N[C@@H](CCCNC(=N)N)C(=O)N[C@@H](CCC(=O)O)C(=O)N[C@@H](CCC(N)=O)C(=O)N[C@@H](C)C(=O)N[C@@H](CCC(=O)O)C(=O)N[C@H](C(=O)N[C@@H](CC(N)=O)C(=O)N[C@@H](CCCCN)C(=O)N[C@@H](CCC(N)=O)C(=O)N[C@H](C(=O)N[C@@H](CC(C)C)C(=O)N[C@@H](C)C(=O)N[C@@H](CCC(N)=O)C(=O)N[C@H](C(N)=O)C(C)C)[C@@H](C)CC)[C@@H](C)O)[C@@H](C)CC)[C@@H](C)CC)C(C)C)C(C)C

The binders below were run against T1, CRF1R receptor (anti-target) (assay: cell-based or functional assay).
With B1 the “EC50 [nM] 0% HSA (cAMP, HTRF)” value was greater than 100 nM and the “Emax (%) (100% = Sauvagine at 100 nM)” value was 9%. With B2 the “EC50 [nM] 0% HSA (cAMP, HTRF)” value was greater than 100 nM and the “Emax (%) (100% = Sauvagine at 100 nM)” value was 14%. B3 was tested, and the “EC50 [nM] 0% HSA (cAMP, HTRF)” value was greater than 100 nM and the “Emax (%) (100% = Sauvagine at 100 nM)” value was 3.7%. B4 was tested, and the “EC50 [nM] 0% HSA (cAMP, HTRF)” value was greater than 100 nM and the “Emax (%) (100% = Sauvagine at 100 nM)” value was 2.3%. For B5, the “EC50 [nM] 0% HSA (cAMP, HTRF)” value was greater than 100 nM and the “Emax (%) (100% = Sauvagine at 100 nM)” value was 15.4%. For B6, the “EC50 [nM] 0% HSA (cAMP, HTRF)” value was greater than 100 nM and the “Emax (%) (100% = Sauvagine at 100 nM)” value was 3.7%.
